Data reported in the Human Domainome abundance scans (Beltran et al. 2025).
± gives the uncertainty stated by the source.

B1: Protein C-ets-1, residues 55 to 135; numbered along this chain, P14921 (parent)
chain: GFTKEQQRLGIPKDPRQWTETHVRDWVMWAVNEFSLKGVDFQKFCMNGAALCALGKDCFLELAPDFVGDILWEHLEILQKE

Variants of: B1
Experiment: abundance fitness (aPCA) (normalised: wild type 0, dead -1); higher = more abundant; growth selection in yeast, the domain comes from the species named
Conditions: Homo sapiens

**Q.** With GFTKEQQRLGIPKDPRQWTETHVRDAVMWAVNEFSLKGVDFQKFCMNGAALCALGKDCFLELAPDFVGDILWEHLEILQKE as the variant, how does the abundance fitness read?
**A.** -0.845 ± 0.041

**Q.** With GFTKEQQRLGIPKDPRQWTETHVRDHVMWAVNEFSLKGVDFQKFCMNGAALCALGKDCFLELAPDFVGDILWEHLEILQKE as the variant, how does the abundance fitness read?
**A.** -0.822 ± 0.089

**Q.** For GFTKEQQRLGIPKDPRQWTETHVRDTVMWAVNEFSLKGVDFQKFCMNGAALCALGKDCFLELAPDFVGDILWEHLEILQKE, which abundance fitness is on record?
**A.** -0.954 ± 0.06

**Q.** With GFTKEQQRLGIPKDPRQWTETHVRDEVMWAVNEFSLKGVDFQKFCMNGAALCALGKDCFLELAPDFVGDILWEHLEILQKE as the variant, how does the abundance fitness read?
**A.** -0.84 ± 0.057

**Q.** For GFTKEQQRLGIPKDPRQWTETHVRDGVMWAVNEFSLKGVDFQKFCMNGAALCALGKDCFLELAPDFVGDILWEHLEILQKE, which abundance fitness is on record?
**A.** -0.895 ± 0.038

**Q.** For GFTKEQQRLGIPKDPRQWTETHVRDVVMWAVNEFSLKGVDFQKFCMNGAALCALGKDCFLELAPDFVGDILWEHLEILQKE, which abundance fitness is on record?
**A.** -0.863 ± 0.041

**Q.** For GFTKEQQRLGIPKDPRQWTETHVRDDVMWAVNEFSLKGVDFQKFCMNGAALCALGKDCFLELAPDFVGDILWEHLEILQKE, which abundance fitness is on record?
**A.** -0.668 ± 0.064

**Q.** Which abundance fitness does the source give for GFTKEQQRLGIPKDPRQWTETHVRDPVMWAVNEFSLKGVDFQKFCMNGAALCALGKDCFLELAPDFVGDILWEHLEILQKE here?
**A.** -0.861 ± 0.048

**Q.** With GFTKEQQRLGIPKDPRQWTETHVRDCVMWAVNEFSLKGVDFQKFCMNGAALCALGKDCFLELAPDFVGDILWEHLEILQKE as the variant, how does the abundance fitness read?
**A.** -0.662 ± 0.058

**Q.** Which abundance fitness does the source give for GFTKEQQRLGIPKDPRQWTETHVRDFVMWAVNEFSLKGVDFQKFCMNGAALCALGKDCFLELAPDFVGDILWEHLEILQKE here?
**A.** -0.213 ± 0.053

**Q.** With GFTKEQQRLGIPKDPRQWTETHVRDRVMWAVNEFSLKGVDFQKFCMNGAALCALGKDCFLELAPDFVGDILWEHLEILQKE as the variant, how does the abundance fitness read?
**A.** -0.934 ± 0.04

**Q.** Which abundance fitness does the source give for GFTKEQQRLGIPKDPRQWTETHVRDNVMWAVNEFSLKGVDFQKFCMNGAALCALGKDCFLELAPDFVGDILWEHLEILQKE here?
**A.** -0.865 ± 0.096

**Q.** For GFTKEQQRLGIPKDPRQWTETHVRDSVMWAVNEFSLKGVDFQKFCMNGAALCALGKDCFLELAPDFVGDILWEHLEILQKE, which abundance fitness is on record?
**A.** -0.968 ± 0.05

**Q.** Which abundance fitness does the source give for GFTKEQQRLGIPKDPRQWTETHVRDLVMWAVNEFSLKGVDFQKFCMNGAALCALGKDCFLELAPDFVGDILWEHLEILQKE here?
**A.** -0.966 ± 0.052

**Q.** Which abundance fitness does the source give for GFTKEQQRLGIPKDPRQWTETHVRDKVMWAVNEFSLKGVDFQKFCMNGAALCALGKDCFLELAPDFVGDILWEHLEILQKE here?
**A.** -0.727 ± 0.066

**Q.** Which abundance fitness does the source give for GFTKEQQRLGIPKDPRQWTETHVRDIVMWAVNEFSLKGVDFQKFCMNGAALCALGKDCFLELAPDFVGDILWEHLEILQKE here?
**A.** -1.1 ± 0.15

**Q.** With GFTKEQQRLGIPKDPRQWTETHVRHWVMWAVNEFSLKGVDFQKFCMNGAALCALGKDCFLELAPDFVGDILWEHLEILQKE as the variant, how does the abundance fitness read?
**A.** 0.041 ± 0.052

**Q.** Which abundance fitness does the source give for GFTKEQQRLGIPKDPRQWTETHVRFWVMWAVNEFSLKGVDFQKFCMNGAALCALGKDCFLELAPDFVGDILWEHLEILQKE here?
**A.** -0.124 ± 0.055

**Q.** For GFTKEQQRLGIPKDPRQWTETHVREWVMWAVNEFSLKGVDFQKFCMNGAALCALGKDCFLELAPDFVGDILWEHLEILQKE, which abundance fitness is on record?
**A.** 0.06 ± 0.039

**Q.** With GFTKEQQRLGIPKDPRQWTETHVRLWVMWAVNEFSLKGVDFQKFCMNGAALCALGKDCFLELAPDFVGDILWEHLEILQKE as the variant, how does the abundance fitness read?
**A.** 0.016 ± 0.022

**Q.** For GFTKEQQRLGIPKDPRQWTETHVRGWVMWAVNEFSLKGVDFQKFCMNGAALCALGKDCFLELAPDFVGDILWEHLEILQKE, which abundance fitness is on record?
**A.** -0.038 ± 0.027

**Q.** With GFTKEQQRLGIPKDPRQWTETHVRRWVMWAVNEFSLKGVDFQKFCMNGAALCALGKDCFLELAPDFVGDILWEHLEILQKE as the variant, how does the abundance fitness read?
**A.** -0.023 ± 0.027

**Q.** Which abundance fitness does the source give for GFTKEQQRLGIPKDPRQWTETHVRCWVMWAVNEFSLKGVDFQKFCMNGAALCALGKDCFLELAPDFVGDILWEHLEILQKE here?
**A.** -0.01 ± 0.048

**Q.** For GFTKEQQRLGIPKDPRQWTETHVRPWVMWAVNEFSLKGVDFQKFCMNGAALCALGKDCFLELAPDFVGDILWEHLEILQKE, which abundance fitness is on record?
**A.** -0.973 ± 0.08

**Q.** With GFTKEQQRLGIPKDPRQWTETHVRKWVMWAVNEFSLKGVDFQKFCMNGAALCALGKDCFLELAPDFVGDILWEHLEILQKE as the variant, how does the abundance fitness read?
**A.** -0.005 ± 0.049

**Q.** Which abundance fitness does the source give for GFTKEQQRLGIPKDPRQWTETHVRVWVMWAVNEFSLKGVDFQKFCMNGAALCALGKDCFLELAPDFVGDILWEHLEILQKE here?
**A.** -0.061 ± 0.026

**Q.** With GFTKEQQRLGIPKDPRQWTETHVRQWVMWAVNEFSLKGVDFQKFCMNGAALCALGKDCFLELAPDFVGDILWEHLEILQKE as the variant, how does the abundance fitness read?
**A.** -0.003 ± 0.048

**Q.** With GFTKEQQRLGIPKDPRQWTETHVRTWVMWAVNEFSLKGVDFQKFCMNGAALCALGKDCFLELAPDFVGDILWEHLEILQKE as the variant, how does the abundance fitness read?
**A.** -0.038 ± 0.033

**Q.** For GFTKEQQRLGIPKDPRQWTETHVRYWVMWAVNEFSLKGVDFQKFCMNGAALCALGKDCFLELAPDFVGDILWEHLEILQKE, which abundance fitness is on record?
**A.** -0.027 ± 0.048

**Q.** For GFTKEQQRLGIPKDPRQWTETHVRAWVMWAVNEFSLKGVDFQKFCMNGAALCALGKDCFLELAPDFVGDILWEHLEILQKE, which abundance fitness is on record?
**A.** 0.014 ± 0.027

**Q.** With GFTKEQQRLGIPKDPRQWTETHVRWWVMWAVNEFSLKGVDFQKFCMNGAALCALGKDCFLELAPDFVGDILWEHLEILQKE as the variant, how does the abundance fitness read?
**A.** -0.05 ± 0.045

**Q.** Which abundance fitness does the source give for GFTKEQQRLGIPKDPRQWTETHVRSWVMWAVNEFSLKGVDFQKFCMNGAALCALGKDCFLELAPDFVGDILWEHLEILQKE here?
**A.** -0.008 ± 0.028

**Q.** With GFTKEQQRLGIPKDPRQWTETHVRIWVMWAVNEFSLKGVDFQKFCMNGAALCALGKDCFLELAPDFVGDILWEHLEILQKE as the variant, how does the abundance fitness read?
**A.** -0.033 ± 0.053

**Q.** Which abundance fitness does the source give for GFTKEQQRLGIPKDPRQWTETHVRMWVMWAVNEFSLKGVDFQKFCMNGAALCALGKDCFLELAPDFVGDILWEHLEILQKE here?
**A.** -0.061 ± 0.034
